Results on ten molecules are retold here after patent publication US20160376343A1 (NATIONAL INSTITUTE FOR BIOTECHNOLOGY IN THE NEGEV, published 2016).

Positions count from the first letter of the chain named. Names and notes keep the numbering of the source.

First the molecules themselves.
B1: V6 expressed in E. coli (Trx-6xHis-tagged) (receptor)
chain: LRLLDHRALVCSQEGLNCTVKNSTCLDDSWIHPRNLTPSSPKDLQIQLHFAHTQQGDLLPVAHIEWTLQTDASILYLEGAELSVLQLNTNERLCVRFEFLSKLRHHHKRWRFTFSHFVVDPGQEYEVTVHHLPKPIPDGDPNHQSKNFLVPDCEHARMKVTTPCMSSGSLWDPNITVETLEAHQLRVSFTLWNESTHYQILLTSFPHMENHSCFEHMHHIPAPRPEEFHQRSNVTLTLRNLKGCCRHQVQIQPFFSSCLNDCLRHSATVSCPEMPDTPEPIPDYMPLW
notes: Tested as cleared E. coli lysate; not shown: N-terminal thioredoxin (Trx)-6xHistidine tag of pET32
B2: V9 expressed in E. coli (Trx-6xHis-tagged) (receptor)
chain: B1 chain with L9P, D43N, R96K, G122D
notes: as for B1
B3: hIL17RA-ECD variant V3 (Fc fusion)
chain: B1 chain with L9P, E14P, L59F, H155D, G243W, A267V
notes: also called hIL-17R-V3; hIL17R-V3; not shown: human IgG1 engineered Fc (reduced ADCC/CDC) from the expression vector
B4: hIL17RA-ECD variant V10 (Fc fusion)
chain: B1 chain with L9P, E14P, L59V, A156P
notes: also called V10M; not shown: human IgG1 engineered Fc (reduced ADCC/CDC) from the expression vector
B5: V3 K109R (Fc fusion)
chain: B1 chain with L9P, E14P, L59F, K108R, H155D, G243W, A267V
notes: Expressed in mammalian cells; not shown: human IgG1 engineered Fc from the mammalian expression vector
B6: V3M V268A (Fc fusion)
chain: B1 chain with L9P, E14P, L59F, H155D, G243W
notes: Expressed in mammalian cells; also called V3 V268A; not shown: human IgG1 engineered Fc from the mammalian expression vector
B7: V3 P10L (Fc fusion)
chain: B1 chain with E14P, L59F, H155D, G243W, A267V
notes: as for B5
B8: V10 K109R (Fc fusion)
chain: B1 chain with L9P, E14P, L59V, K108R, A156P
notes: as for B5
B9: V10 V60F (Fc fusion)
chain: B1 chain with L9P, E14P, L59F, A156P
notes: as for B5
B10: V3 W244G (Fc fusion)
chain: B1 chain with L9P, E14P, L59F, H155D, A267V
notes: as for B5

T1 sequence (Q16552 24-155 limits assumed): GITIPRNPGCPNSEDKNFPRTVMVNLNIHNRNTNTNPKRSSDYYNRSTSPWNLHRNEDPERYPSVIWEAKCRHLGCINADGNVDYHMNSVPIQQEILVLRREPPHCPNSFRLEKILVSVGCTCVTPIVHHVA

The first assay addresses T1, hIL-17A (human, UniProt Q16552 24-155).
T1 construct: Bought protein
The experiment in a line: ELISA of cleared E. coli lysate on plate-captured hIL-17A, detected with biotinylated anti-hIL-17RA and streptavidin-HRP, OD 450 nm; concentration not given. How it is done: (§1) ELISA plates (Griener Microlon 96W) were incubated with 100 μl of 0.5 μg/ml goat α-hIL-17A antibodies (R&D Systems) for 1 hour, washed with PBS supplemented with 0.05% Tween-80 (PBST) and 100 μl of 0.35 μg/ml hIL-17A (R&D Systems or ProSpec Tany TechnoGene Ltd.) were added to the plate for an additional 1 hour. The plates were then washed with PBST and blocked by incubation with 100 μl of PBS supplemented with 3% skim milk for 1 hour. Following blocking, the plates were washed and incubated with 100 μl of the cleared lysate, cell media or purified protein generated (described above) at appropriate dilutions and shaken for 1 hour. hIL-17RA (R&D Systems) was applied at a concentration of 6.25 μg/ml as a positive control, and PBS supplemented with 1% BSA as a negative control. Plates were then washed with PBST, incubated with 100 μl of 0.05 μg/ml goat α-hIL-17RA antibodies (R&D Systems) followed by a secondary peroxidase-conjugated streptavidin (Jackson, 1:10000 dilution). Finally, 100 μl of the horseradish peroxidase (HRP) chromogenic 3,3′,5,5′-tetramethylbenzidine (TMB) substrate solution (Dako) were added. The reaction was stopped by the addition of 1 M sulfuric acid and recorded at 450 nm using a Tecan Infinite M200 plate reader.
Take B1: the binding result was “binds”.
Regarding B2, the binding result is given as “binds”.

A further assay has as its target T1, hIL-17A. The experiment in a line: SPR (ProteOn XPR36), receptor immobilised, hIL-17A as analyte. How it is done: The affinity of hIL-17A binding to hIL17RA-ECD variants was determined by SPR measurements on ProteOn XPR36 (Bio-Rad) instrument. All samples were in HBST buffer (10 mM HEPES with 0.15 M NaCl, 3.4 mM EDTA and 0.005% Tween-20, pH 7.2). A GLC Chip was air initialized and activated with EDC/S-NHS and […] from each of the hIL17RA-ECD variants were diluted in Acetate buffer pH 5.5 and immobilized onto the chip. The measured binding levels for WT hIL17RA-ECD, V3 and V10 were ˜5300RU, 6700RU and 7400RU, respectively. Following blockage of the unbound sites on the chip with Ethanolamine, the chip was flushed with HBST buffer and rotated. The hIL-17A was run at 25 μl/min. for 300 sec at various concentrations (50, 25, 12.5, 6.25 and 3.125 nM) followed by a 10-min. dissociation step. Binding parameters were determined using Langmuir single binding site model using the Bio-Rad's proteOn Manager Software V2.1.2.05.
With B3, the “Fold increase in affinity (against WT hIL17RA-ECD)” value is 6 fold, the Kd was found to be 0.443 nM, the koff was 7.51e-05 s⁻¹ and the kon amounted to 170000 M⁻¹ s⁻¹.
On to B4, for which the “Fold increase in affinity (against WT hIL17RA-ECD)” value stood at 4.2 fold, binding was characterised by a dissociation constant (Kd) of 0.624 nM, the koff is 0.000115 s⁻¹ and the kon is 184000 M⁻¹ s⁻¹.

The next assay concerns the target T1, hIL-17A. The experiment in a line: ELISA on captured hIL-17A. How it is done:
as §1
Turning to B5, the “IL-17A binding relative to the WT” value amounted to 45%.
B6: the “IL-17A binding relative to the WT” value is 80%.
For B7, the “IL-17A binding relative to the WT” value was determined as 85%.
Same read-out and setting: under B3 stands 100%.
Take B8: the “IL-17A binding relative to the WT” value stood at 80%.
On the same count and under the same terms, under B9 stands 10%; under B4, 100%.
Consider B10, for which the “IL-17A binding relative to the WT” value was 65%.
